Results from FireProtDB (doi:10.1016/0168-1656(93)90129-b).

B1: Ribonuclease HI, P0A7Y4 (parent)
chain: MLKQVEIFTDGSCLGNPGPGGYGAILRYRGREKTFSAGYTRTTNNRMELMAAIVALEALKEHCEVILSTDSQYVRQGITQWIHNWKKRGWKTADKKPVKNVDLWQRLDAALGQHQIKWEWVKGHAGHPENERCDELARAAAMNPTLEDTGYQVEV

Variants of: B1
Conditions: Escherichia coli (strain K12), CD, reversible: yes, structure 2RN2, whole UniProt chain shown; for Tm / change of melting temperature, mutant - wild type (higher = more stable): Thermal; for ddG of mutation (higher = less stable) / denaturant midpoint (higher = more stable) / unfolding free energy: 25 °C, GdnHCl

H62A
Tm (pH 3, glycine-HCl 10 mM): 50.7 °C | change of melting temperature, mutant - wild type (higher = more stable) (pH 3, glycine-HCl 10 mM): 1.3 °C | ddG of mutation (higher = less stable) (pH 5.5, Sodium acetate 20 mM): -0.36 kcal/mol | denaturant midpoint (higher = more stable) (pH 5.5, Sodium acetate 20 mM): 1.86 M | unfolding free energy (pH 5.5, Sodium acetate 20 mM): 9.57 kcal/mol | Tm (pH 7.8, Sodium phosphate 20 mM): 51.2 °C | change of melting temperature, mutant - wild type (higher = more stable) (pH 7.8, Sodium phosphate 20 mM): 1 °C | ddG of mutation (higher = less stable) (pH 8.2, Tris-HCl 20 mM): -0.58 kcal/mol | denaturant midpoint (higher = more stable) (pH 8.2, Tris-HCl 20 mM): 1.76 M | unfolding free energy (pH 8.2, Tris-HCl 20 mM): 9.07 kcal/mol

H124A
Tm (pH 3, glycine-HCl 10 mM): 51.1 °C | change of melting temperature, mutant - wild type (higher = more stable) (pH 3, glycine-HCl 10 mM): 1.7 °C | ddG of mutation (higher = less stable) (pH 5.5, Sodium acetate 20 mM): -0.17 kcal/mol | denaturant midpoint (higher = more stable) (pH 5.5, Sodium acetate 20 mM): 1.82 M | unfolding free energy (pH 5.5, Sodium acetate 20 mM): 9.38 kcal/mol | Tm (pH 5.5, Sodium acetate 20 mM): 52.7 °C | change of melting temperature, mutant - wild type (higher = more stable) (pH 5.5, Sodium acetate 20 mM): 0 °C | Tm (pH 7.8, Sodium phosphate 20 mM): 50.3 °C | change of melting temperature, mutant - wild type (higher = more stable) (pH 7.8, Sodium phosphate 20 mM): 0.1 °C | ddG of mutation (higher = less stable) (pH 8.2, Tris-HCl 20 mM): -0.05 kcal/mol | denaturant midpoint (higher = more stable) (pH 8.2, Tris-HCl 20 mM): 1.66 M | unfolding free energy (pH 8.2, Tris-HCl 20 mM): 8.54 kcal/mol

H62A H83A
Tm (pH 7.8, Sodium phosphate 20 mM): 51.5 °C | change of melting temperature, mutant - wild type (higher = more stable) (pH 7.8, Sodium phosphate 20 mM): 1.3 °C

H62A H83A H124A H127A
Tm (pH 3, glycine-HCl 10 mM): 54.9 °C | change of melting temperature, mutant - wild type (higher = more stable) (pH 3, glycine-HCl 10 mM): 5.5 °C | Tm (pH 7.8, Sodium phosphate 20 mM): 51.7 °C | change of melting temperature, mutant - wild type (higher = more stable) (pH 7.8, Sodium phosphate 20 mM): 1.5 °C

H127A
Tm (pH 3, glycine-HCl 10 mM): 50.3 °C | change of melting temperature, mutant - wild type (higher = more stable) (pH 3, glycine-HCl 10 mM): 0.9 °C | ddG of mutation (higher = less stable) (pH 5.5, Sodium acetate 20 mM): 0.24 kcal/mol | denaturant midpoint (higher = more stable) (pH 5.5, Sodium acetate 20 mM): 1.74 M | unfolding free energy (pH 5.5, Sodium acetate 20 mM): 8.97 kcal/mol | ddG of mutation (higher = less stable) (pH 8.2, Tris-HCl 20 mM): 0.31 kcal/mol | denaturant midpoint (higher = more stable) (pH 8.2, Tris-HCl 20 mM): 1.59 M | unfolding free energy (pH 8.2, Tris-HCl 20 mM): 8.18 kcal/mol

H124A H127A
Tm (pH 3, glycine-HCl 10 mM): 53 °C | change of melting temperature, mutant - wild type (higher = more stable) (pH 3, glycine-HCl 10 mM): 3.6 °C | Tm (pH 5.5, Sodium acetate 20 mM): 52.1 °C | change of melting temperature, mutant - wild type (higher = more stable) (pH 5.5, Sodium acetate 20 mM): -0.6 °C | Tm (pH 7.8, Sodium phosphate 20 mM): 50.1 °C | change of melting temperature, mutant - wild type (higher = more stable) (pH 7.8, Sodium phosphate 20 mM): -0.1 °C

H114A
Tm (pH 7.8, Sodium phosphate 20 mM): 42.5 °C | change of melting temperature, mutant - wild type (higher = more stable) (pH 7.8, Sodium phosphate 20 mM): -7.7 °C

H83A
Tm (pH 3, glycine-HCl 10 mM): 51.5 °C | change of melting temperature, mutant - wild type (higher = more stable) (pH 3, glycine-HCl 10 mM): 2.1 °C | ddG of mutation (higher = less stable) (pH 5.5, Sodium acetate 20 mM): -0.22 kcal/mol | denaturant midpoint (higher = more stable) (pH 5.5, Sodium acetate 20 mM): 1.83 M | unfolding free energy (pH 5.5, Sodium acetate 20 mM): 9.43 kcal/mol | Tm (pH 5.5, Sodium acetate 20 mM): 52.8 °C | change of melting temperature, mutant - wild type (higher = more stable) (pH 5.5, Sodium acetate 20 mM): 0.1 °C | Tm (pH 7.8, Sodium phosphate 20 mM): 50 °C | change of melting temperature, mutant - wild type (higher = more stable) (pH 7.8, Sodium phosphate 20 mM): -0.2 °C | ddG of mutation (higher = less stable) (pH 8.2, Tris-HCl 20 mM): 0.09 kcal/mol | denaturant midpoint (higher = more stable) (pH 8.2, Tris-HCl 20 mM): 1.63 M | unfolding free energy (pH 8.2, Tris-HCl 20 mM): 8.4 kcal/mol
